Results: the RNAGym collection of RNA variant scans (doi:10.1073/pnas.2313332121)

B1: TPR t1 (parent)
chain: GACCAAUCUGCCCUCAGAGCUCGAGAACAUCUUCGGAUGCAGAGGAGGCAGGCUUCGGUGGCGCGAUAGCGCCAACGUCCUCAACCUCCAAUGCAUCCCACCACAUGAUGAUGCCUGAAGAGCCUUGGUUUUUUG

Variants of: B1
Assay: polymerase ribozyme fitness, log enrichment relative to wild type (log ratio); higher = more active; in vitro selection for triplet polymerase activity
Outline: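 The heterodimeric triplet polymerase ribozyme's subunits were each mutagenized into PCR-built libraries and transcribed. Every library was selected once, in triplicate, by annealing with a biotinylated primer, the partner subunit and triplets, incubating frozen at −7 °C, gel-excising extended constructs, capturing on streptavidin beads and running RT-PCR. Input and output libraries were Illumina-sequenced, with genotypes kept only at ≥10 input reads and ≥1 read per output. Fitness, from inverse-variance-weighted replicate averages, is the base-2 logarithm of genotype enrichment over wild-type enrichment.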

Row | Variant | polymerase ribozyme fitness (log ratio)
1 | C34U G44C U87A C89G C115A | -4.92
2 | G36U G51C G69U | -2.55
3 | C34A G61A U112A C115U | -6.79
4 | A37G C53A C56A A90U A91C G113C | -2.55
5 | G36U U125A U133A | -2.46
6 | G36U U116A | -4.2
7 | C34A A84U | -2.81
8 | G36C A100U A111G | -1.04
9 | C34G G60A C70A A105U G117U U126A U129A U133G | -6.69
10 | C34A G48A U59C C101A | -5.32
11 | U33G U130A | -5.01
12 | G36A C73G C101A U106C | -3.26
13 | C34G C40U | -6.15
14 | G36A G42A C70U C72U | -4.5
15 | G35U C72A | -5.07
16 | U33C G60C | -5.53
17 | U33C G60U | -3.44
18 | C34G A43C G60U | -6.09
19 | G35U C70U C72U G120C | -6.33
20 | G36A G71A C94A | -5.5
21 | G35A G113A | -4.16
22 | C34U G63C A111C U132A | -4.98
23 | G36C G45C C98U | -3.33
24 | G36C G44A G71A A75G C89A | -3.61

Row | Variant | polymerase ribozyme fitness (log ratio)
25 | G36U A111U | -3.05
26 | G35A C53G C62U G77C A84C C124G G135C | -3.97
27 | C34A G113C G117C | -6.74
28 | G36A C53A U54G G120C | 0.74
29 | G36A C88A | -1.76
30 | G36A C88G | -2.65
31 | C34U C72U U106A | -4.34
32 | G36A G71A | -1.64
33 | G35A A46U A83U U87C C104U | -4.09
34 | G36C G60A C98U | -2.39
35 | A37C A91G | -2.03
36 | G36U U106A G127C | -1.83
37 | G36A G52C A95G G113A | -3.73
38 | A37C U54A C64U U109A | -6.92
39 | C34G A90C U112G | -6.02
40 | G35C G63A C73A | -5.71
41 | C34A G60A A103G C124U G135A | -5.23
42 | G35A G42A U106A U112G A121C G127U G128A | -5.37
43 | A37G C49U C82A U87C U106G U133G | -2.13
44 | A37C U55C | -1.17
45 | C34U G63A | -3.64
46 | C34U G63U | -4.85
47 | G36C G113U U129A | -4.27
48 | C34A U78C | -2.79

Row | Variant | polymerase ribozyme fitness (log ratio)
49 | G36U C40U A43C A46U G48C | -5.24
50 | C34G A111G U129G | -6.92
51 | G36U G47U | -2.97
52 | A37G C76U | -1.3
53 | G35C C88A | -5.61
54 | C34U C72A | -3.94
55 | G36C U78G | -1.1
56 | G36U G63U C80U A84C | -4.1
57 | G36A C82G C123U | -0.368
58 | G36U A46U C72G C82A U87C U130G | -3.54
59 | G36A A43C | -3.56
60 | C34U U92A | -6.09
61 | G35A A37U U87G | -5.66
62 | G35A G69C U87G | -5.37
63 | C34A G48U A121U | -1.3
64 | U33C G77C | -5.05
65 | C34G U87A | -5.65
66 | G36A C64U C72A U106A | -0.401
67 | A37C G60U C82U A83U U87A | -2.34
68 | G36A C97U | -0.157
69 | G36C G60U A118U | -0.591
70 | G36U C80A | -3.93
71 | G35A G39A C70U C72U U109G C124U | -7.05
72 | C34U C40U G42A A43G C104A U109A G135A | -4.93

Row | Variant | polymerase ribozyme fitness (log ratio)
73 | C34U C70U | -5.65
74 | A37C G48C C53U U54A G60C C88A G93A C115U A121G | -6.81
75 | A37C A46C C62U U78G | -1.66
76 | U33G C34G A103U | -6.38
77 | A37C C62G G120U U125G U130C | -3.18
78 | A37G C73G U109A | -7.2
79 | G35C A95U | -4.31
80 | U33C C99U C123A | -7.51
81 | U33G G69A C70A A111U | -7.15
82 | G36U | -1.06
83 | G36C | -1.27
84 | G36A | -0.858
85 | G36A C124U | 0.816
86 | C34G A37U U55G C72G U92C C124A | -5.91
87 | A37C C56G C101A G110U G127U | -4.67
88 | A37C G44A C53U C104U | -1.64
89 | U33C C99G U109A | -7.26
90 | G36A C49A G60A A118G | -1.7
91 | C34A C53A | -2.86
92 | U33C C62U C99U C115U | -6.64
93 | C34A C76A | -4.09
94 | G35U G77C C123G | -5.04
95 | A37C G71U C101A G127C | -2.36
96 | C34G C53U G60A U87G G110C | -7.9

Row | Variant | polymerase ribozyme fitness (log ratio)
97 | C34A U55C | -3.18
98 | G35C C53U C56G G120A | -2.61
99 | C34A U54G C94U | -2.75
100 | C34G A46C U106A G110A U130G U131A | -5.46
101 | G36A G69A C73G G120A | -5.29
102 | G35C C97A | -5.43
103 | C34A C104U | -2.35
104 | G35U G63A U67G C88A C124A G127C U132A | -7.2
105 | C34G U59A G117U U129G | -8.01
106 | A37G C49A | -0.708
107 | C34U C86U C104U C114U | -4.34
108 | C34G A41C C56A A66U C115A | -7.59
109 | C34G G120C | -4.78
110 | A37C G63U G122U | -2.81
111 | C34A U38A G71U C101U | -5.16
112 | C34U C64U | -3.93
113 | G36U U81A | -2.11
114 | G36U C73U G107C | -6.17
115 | G36U G57A | -2.09
116 | G36C G47A C56A G71A U78G C115U A118G | -6.68
117 | G36U C72G C124U | -0.0425
118 | U33G G52C C64G U78A C98A U112G U116G | -7.08
119 | C34A G60A C115U | -5.48
120 | G36A G69A | -3.69

Row | Variant | polymerase ribozyme fitness (log ratio)
121 | G36U C53U G61A U96G | -2.34
122 | G35A G42C | -5.64
123 | G36A C56A | -1.03
124 | C34G C89U | -7.42
125 | G35C C98A A103C C123U | -5.49
126 | C34G A74U A90C U112G | -6.64
127 | C34A G60A C72G C88U | -6.11
128 | G36A A66C G120U | -1.74
129 | C34A C40U C49A C62U U96G | -5.57
130 | C34G G61A G113U G122U | -7.08
131 | G36C G52C C70A U106A | -2.71
132 | G35U C70U C73A | -7.04
133 | U33G G39A C72G A84G A111U | -6.45
134 | G35C C49G C98G | -2.89
135 | C34U A50U | -3.8
136 | C34U G52U G69C C79G A100G C114U | -5.24
137 | G36U C102A C123U | -2.11
138 | G35C C79U C104A C124A | -5.25
139 | G36A C98U | -3.49
140 | C34G C73A | -5.35
141 | G35U A100U | -5.66
142 | G36C G42U C56G A74C G107U U112A C114A | -7.54
143 | G36C C88A | -2.1
144 | C34A U133A | -2.19

Row | Variant | polymerase ribozyme fitness (log ratio)
145 | G36U G47C G117U | -6.43
146 | G36U C86G | -2.22
147 | U33G G69U | -2.25
148 | C34A U55G G77A | -4.67
149 | C34U G71A | -5.88
150 | G36U C123U | 0.205
151 | C34U U54A G69U C79U G93A U96A | -6.73
152 | C34U A50U C102U U109A C124U | -5.84
153 | A37C C53U C123U | 0.761
154 | G35U C40U G61A C124U | -4.87
155 | G36U A83C C104U U106G | -3.91
156 | C34A C97A C115G | -4.43
157 | G35A C98G | -6.5
158 | G36A C49A G110C | -5.65
159 | G36U U78G A105C | -3.65
160 | G36U A46U G52U G120A | -2.3
161 | G36U C101A | -2.53
162 | C34A G61C A91C A121U U134C | -5.66
163 | G36A G42A C72U | -4.34
164 | G36U U112G G113U | -3.55
165 | C34A C73G G120A C124G U133A | -1.12
166 | G36C C76A U106A G110A | -4.36
167 | U33G A50G A121C | -4.43
